Tests used:
β cells = assay: multiple low-dose streptozotocin (STZ) model; format: in vivo, mouse; conditions: Fltp ZV/+ and Fltp ZV/ZV mice, 40 mg/kg i.p. daily for 5 days, vs vehicle, up to day 16
Description: […] Blood glucose level was measured every 2 days using Freestyle Lite glucometer (Abbot Laboratory). On day 16 after the first STZ injection, GTT was carried out as described and mice were euthanized.
To further test the requirement of PCP and Fltp in the context of β cell survival and regeneration, a multiple low-dose streptozotocin (STZ) model was employed (Kolb 1987). Streptozotocin is a naturally occurring chemical that is particularly toxic to β cells. For this purpose STZ was injected on five consecutive days and blood glucose regulation was measured every 2nd day thereafter in Fltp^ZV/+ and Fltp^ZV/ZV cohorts (FIG. 5C). […] Thus, loss of Fltp and planar polarization in β cells increases the vulnerability to STZ.

EndoC-β H1 human β-cells = assay: NKX6.1 maturation marker expression in EndoC-β H1 cells cultured in Matrigel (3D), WNT5a stimulation, LSM immunofluorescence; format: cell-based
Description: (§1) EndoC-β H1 human β-cell line were cultured in adherence (2D culture) as described previously (Ravassard et al. (2011)). For 3D matrigel based cultures EndoC-β H1 were cultured in Matrigel Matrix Growth Factor Reduced (BD Bioscience, Germany) diluted 1:2 in their respective medium. For analysis of WNT5a induced β-cell maturation, samples were stimulated with 400 ng/ml of WNT5a (R&D systems, Germany) for 12 h or 3 days.
Staining of EndoC-β H1 cells was performed as follows: cells were fixed for 10 min in 4% PFA at 37° C. washed 3× with PBS containing 0.2% Tween and 0.3% BSA (washing buffer) at RT, and permeabilized for 30 min on a shaker at RT. Subsequently the cells were washed again 3× with washing buffer at RT, blocked for 1 h at RT in blocking buffer (PBS including 0.02% Tween, 10% FCS, 0.2% BSA, 3% serum). Then the primary antibody was added in blocking solution and incubated over night at 4° C. The cells were washed 3× in washing buffer, incubated with the secondary antibody for 2 h at RT, washed 3× in washing buffer and embedded in Elvanol for subsequent imaging. Imaging was performed with a Leica SP5 confocal microscope according to the manufacturers guidelines. The 63× glycerol objective was used.

[1] = tested on: isolated islets of P5 WT animals; assay: Ucn3 maturation marker staining in isolated, re-aggregated islets of P5 WT animals, Wnt5a stimulation, LSM; format: cell-based, mouse
Description: as §1
Murine pancreatic islets of Langerhans were isolated from 5 day old mice. After decapitation of the animals, the pancreas was dissected and supplemented with collagenase P (1 mg/ml) in HBSS (Hanks balanced salt solution) including 10% BSA (G-solution) and incubated for 15 min at 37° C. The pancreas was washed 2× in G-solution at RT and the islets were picked under the stereomicroscope (Leica). The islets were incubated in RPMI 1640 plus 5% FCS (fetal calf serum) and 1% P/S (penicillin and streptomycin). Afterwards the islets were trypsinized with 0.05% Trypsin […] at 37° C., washed twice with PBS plus 0.3% BSA and then seeded in iBidi 8 well chambers. For immunohistochemistry the protocol mentioned above was used. Fluorescent intensity was calculated by the Leica LAS-AF (Version 2.7.3.9723) software and the graphs were plotted with Excel.

[2] = tested on: Fltp reporter expression in β cells of cultured islets; assay: Fltp reporter expression in isolated islets cultured in absence or presence of Wnt ligands; format: cell-based, mouse; conditions: islets of Fltp-T2A-iCre x mTmG mice cultured in absence or presence of ligand
Description: For lineage tracing studies, islet from eight-week-old Fltp^T2A-iCre-mTmG were isolated as described above. For FACS analysis islet were incubate with 0.25% Trypsin-EDTA (Invitrogen) to obtain single cell suspensions and intarcellular staining for Nkx6.1 was performed. For live imaging experiment isolated islets from Fltp^T2A-iCre-mTmG were cultured in matrigel and imaging was performed using Leica Confocal SP5 microscope.
Islets of these crossings were isolated and cultured in vitro. To establish the culture conditions, it is first tested if β cells depend on Wnt/PCP signaling to maintain Ftp reporter expression. Therefore, islets were cultured in absence or presence of ligands of the canonical Wnt/β-catenin (Wnt3a) and non-canonical Wnt/PCP pathway (Wnt5a). […] Using these culture conditions in combination with live single cell imaging will allow us to follow new born Fltp-Cre expressing mT and mG expressing cells over a time-course of two to four days.

CN(N=O)C(=O)N[C@H]1C(O)O[C@H](CO)[C@@H](O)[C@@H]1O (mixture of isomers) [STZ, Streptozotocin]
loss of β cells (immunohistochemistry on pancreatic sections) (β cells): gradual loss of β cells

B1: Wnt5a: noncanonical Wnt ligand of the Wnt/PCP pathway, obtained from R&D systems (protein, UniProt P41221 62-380, looked up)
Protein Wnt-5a: IIGAQPLCSQLAGLSQGQKKLCHLYQDHMQYIGEGAKTGIKECQYQFRHRRWNCSTVDNTSVFGRVMQIGSRETAFTYAVSAAGVVNAMSRACREGELSTCGCSRAARPKDLPRDWLWGGCGDNIDYGYRFAKEFVDARERERIHAKGSYESARILMNLHNNEAGRRTVYNLADVACKCHGVSGSCSLKTCWLQLADFRKVGDALKEKYDSAAAMRLNSRGKLVQVNSRFNSPTTQDLVYIDPSPDYCVRNESTGSLGTQGRLCNKTSEGMDGCELMCCGRGYDQFKTVQTERCHCKFHWCCYVKCKKCTEIVDQFVCK
expression of NKX6.1 (fluorescent intensity, NKX6.1 high vs low cells) (EndoC-β H1 human β-cells; EndoC-β H1 in Matrigel (3D) treated with WNT5a vs 3D without WNT5a, 400 ng/ml): higher expression of NKX6.1
expression of maturation markers (EndoC-β H1 human β-cells; EndoC-β H1 stimulated with Wnt5a): increased expression of maturation markers
amount of maturation marker Ucn3 protein ([1]; islets of P5 WT animals treated with Wnt5a for 12 h vs non-treated, 400 ng/ml, n=3): higher amount of maturation marker Ucn3 protein
Ucn3 maturation marker staining ([1]; islets of P5 WT animals treated with Wnt5a for 3 days vs untreated, 400 ng/ml, n=3): significant increase in Ucn3 maturation marker staining
expression of maturation markers ([1]; neonatal isolated islets stimulated with Wnt5a): increased expression of maturation markers
maintenance of Fltp reporter gene expression [2]: Fltp-reporter gene expression indeed depend on Wnt/PCP

B2: Wnt3a: ligand of the canonical Wnt/β-catenin pathway (protein, UniProt P56704 19-352, looked up)
Protein Wnt-3a: SYPIWWSLAVGPQYSSLGSQPILCASIPGLVPKQLRFCRNYVEIMPSVAEGIKIGIQECQHQFRGRRWNCTTVHDSLAIFGPVLDKATRESAFVHAIASAGVAFAVTRSCAEGTAAICGCSSRHQGSPGKGWKWGGCSEDIEFGGMVSREFADARENRPDARSAMNRHNNEAGRQAIASHMHLKCKCHGLSGSCEVKTCWWSQPDFRAIGDFLKDKYDSASEMVVEKHRESRGWVETLRPRYTYFKVPTERDLVYYEASPNFCEPNPETGSFGTRDRTCNVSSHGIDGCDLLCCGRGHNARAERRREKCRCVFHWCCYVSCQECTRVYDVHTCK
maintenance of Fltp reporter gene expression [2]: not canonical Wnt signaling

From patent US11733236B2, “Flattop (fltp) is a novel biomarker for beta cell maturation” (Helmholtz Zentrum München—Deutsches Forschungszentrum Für …, priority 2014, dated 2023)
